According to the supplement of paper PMC10201428:
± gives the standard deviation of the averaged measurements.

Key:
[1] = test system: VchCAST RNA-guided transposition machinery (E. coli BL21(DE3) host, lacZ target); assay: relative integration efficiency (T-RL orientation) vs wild-type transposon end (log2 (normalized fold change)); transposon end mutated: left end; higher = more efficient transposition
Outline: (§1)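 Each barcoded pool, 1549 left-end or 1849 right-end transposon variants in a pUC57 mini-transposon donor, went into E. coli BL21(DE3) with a T7-driven effector plasmid (CRISPR array, tniQ-cas8-cas7-cas6, tnsA-tnsB-tnsC). Plates contained 0.1 mM IPTG and were held at 37°C for 18 h. Input plasmids and genomic integration junctions were PCR-amplified and read by Illumina sequencing, with two biological output replicates and four reference barcodes. Relative integration efficiency is the fold change of output over input barcode abundance, normalised to the reference barcodes and log-transformed.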

[2] = test system: VchCAST RNA-guided transposition machinery (E. coli BL21(DE3) host, lacZ target); assay: relative integration efficiency (T-LR orientation) vs wild-type transposon end (log2 (normalized fold change)); transposon end mutated: left end; higher = more efficient transposition
Outline: as §1

Row | Sequence | relative integration efficiency (log2) [1] | relative integration efficiency (log2) [2]
1 | AATGTTGTTGATGCAACCATAAAGTGATATTTAATAATTATTTATAATCAGCACAGGCCAACACCCCACCAACGCGCGGTCGCGAGACACCCCACCAACGCCTGGTCGCGGGGGTGTCCGATCTGATTTCAGCAAAACTACTGCAGTAAGAA | -7.2 ± 1.5 | -3.578 ± 0.033
2 | AATGTTGTTGATGCAACCATAAAGTGATATTTACAACCATATATTGATATCTCACAAAACAACCATAAGTTGATATTTTATAATTATTTATAATCAGCAACTTAACCACAAAATGTGAATCGAGTATTTCAGCAAAACTACTGCAGTAAGAA | -1.4 ± 0.65 | 0.848 ± 1
3 | AATGTTGTTGATGCAACCATAAAGTGATATTTACAACCATATATTGATATCTCTCACAACCATAAGTTGATATTTCTCTGATCATAGTCAGACCAACATTGCTACGACCCGTATTCGCACCGACACTGTGAATCGAGTATTTCAGCAAAACT | -2.28 ± 0.64 | 2.61 ± 1.1
4 | AATGTTGTTGATGCAACCATATATTGATATCTCATAATTATTTATAATCAGCAACTTAACCACAAAACACCCATAAATTGATAATTAACAAAAGTTGGTATTCAACTATAAAATGTGAATCGAGTATTTCAGCAAAACTACTGCAGTAAGAA | -3.56 ± 1.4 | -1.08 ± 1.5
5 | AATGTTGTTGATGCAACCATAAAGTGATATTTAATCCGGCGGGCGCCGACTACCAGGCCAACACCCCACCAACGCGCGGTCGCGAGACACCCCACCAACGCCTGGTCGCGGGGGTGTCCGATCTGATTTCAGCAAAACTACTGCAGTAAGAA | -6.75 ± 1.3 | -4.25 ± 1
6 | TTTTGTGTTGAAACAACCATAAAGTGATAACAACGAATCAATTAAAATCATAGGCTTAATCGAAAAACAACCATATCTTGATATCGCATAAAACAACCATAAGTTGATATTTTGGTGAAACGAGTATTTCAGCAAAACTACTGCAGTAAGAA | -0.949 ± 0.35 | -1.04 ± 0.28
7 | AATGTTGTTGATGCACCCATAAATTGATAATTAATAATTATTTATAATCAGCAACTTAACCACAAAACAACCATAAGTTGATATTTTACAAAAGTTGGTATTCAACTATAAAATGTGAATCGAGTATTTCAGCAAAACTACTGCAGTAAGAA | -3.01 ± 1.1 | -1.17 ± 0.98
8 | AATGTTGTTGATGCAACCATAAAGTGATATTTAATAATTATTTATAATCAGCAACTTAACACACCCCACCAACGCGCGGTCGCGAGACACCCCACCAACGCCTGGTCGCGGGGGTGTCCGATCTGATTTCAGCAAAACTACTGCAGTAAGAA | -5.82 ± 1.5 | -3.16 ± 0.77
9 | AATGTTGTTGATGCAACCATAAGTTGATATTTTATAATTATTTATAATCAGCAACTTAACCACAAAACAACCATAAGTTGATATTTTACAAAAGTTGGTATTCAACTATAAAATGTGAATCGAGTATTTCAGCAAAACTACTGCAGTAAGAA | -3.19 ± 1.4 | -1.03 ± 2.3
10 | AATGTTGTTGATGCAACCATAAAGTGATATTTAATAATCAACCATAAAGTGATATTTAACTTAACCACAACCATATATTGATATCTCACAAAACAACCATAAGTTGATATTTTTGTGAATCGAGTATTTCAGCAAAACTACTGCAGTAAGAA | -2.68 ± 0.72 | -4.25 ± 0.83
11 | AATGTTGTTGATGCAACCATAAAGTGATATTTAATAATTATTTATAATCAGCAACTCAACCATATATTGATATCTCACAAAACAACCATAAGTTGATATTTTTGTGAATCGAGTATTTCAGCAAAACTACTGCAGTAAGAAAGTTACTTCGT | -3.68 ± 1.1 | -3.27 ± 0.88
12 | AATGTTGTTGATGCAACCATAAAGTGATATTTAATAATTATTTATAATCAGCAACTTAACCACAAAACAACCATATATTGATATCTCACACAACCATAAGTTGATATTTTTGTGAATCGAGTATTTCAGCAAAACTACTGCAGTAAGAAAGT | -3.26 ± 0.94 | -1.4 ± 0.91
13 | AATGTTGTTGATGCAACCATAAAGTGATATTTAATAATTATTTATAATCAGCAACTTACAACCATATATTGATATCTCACAAAACAACCATAAGTTGATATTTTTGTGAATCGAGTATTTCAGCAAAACTACTGCAGTAAGAAAGTTACTTC | -0.809 ± 0.49 | -0.998 ± 0.78
14 | AATGTTGTTGATGCAACCATAAAGTGATATTTAATAATTATTTATAATCAGCAACTTAACCACAAAACAACCATATATTGATATCTCACAAAACAACCATAAGGGTCGCGGGGGTGTCCGATCTGATTTCAGCAAAACTACTGCAGTAAGAA | -1.87 ± 0.93 | -1.56 ± 1
15 | AATGTTGTTGATGCAACCATAAAGTGATATATAATTATTTATAATCAGCAACTTAACCACAAAACAACCATATATTGATATCTCACAAAACAACCATAAGTTGATATTTTTGTGAATCGAGTATTTCAGCAAAACTACTGCAGTAAGAAAGT | -7.3 ± 1.5 | -4.68 ± 0.68
16 | AATGTTGTTGATGCACCCATAAATTGATATTGCATAATTATTTATAATCAGCAACTTAACCACAAAACAACCATATATTGATATCTCACAAAAGTTGGTATTCAACTATAAAATGTGAATCGAGTATTTCAGCAAAACTACTGCAGTAAGAA | -3.48 ± 0.92 | -1.64 ± 1.3
17 | AATGTTGTTGATGCAACCATAAAGTGATATTTAATAATTATTTATAATCAGCAACTTAACCACAAAACAAAACGCGCGGTCGCGAGACACCCCACCAACGCCTGGTCGCGGGGGTGTCCGATCTGATTTCAGCAAAACTACTGCAGTAAGAA | -6.07 ± 0.85 | -3.29 ± 0.78
18 | AATGTTGTTGATGCAACCATAAAGTGATATTTAACAACCATATATTGATATCTCACAAAACAACCATAAGTTGATATTTTTGTGAATCGAGTATTTCAGCAAAACTACTGCAGTAAGAAAGTTACTTCGTGGTATGGGAGGATCAAGGAGCC | -2.74 ± 1 | -0.0605 ± 1
19 | AATGTTGTTGATGCAACCATAAAGTGATATTTAATAATTATTTATAATCAGCCAACCATATATTGATATCTCACAAAACAACCATAAGTTGATATTTTTGTGAATCGAGTATTTCAGCAAAACTACTGCAGTAAGAAAGTTACTTCGTGGTA | -7.71 ± 0.64 | -4.33 ± 0.31
20 | AATGTTGTTGATGCAACCATAAAGTGATATTTACGCCGGCGGGCGCCGACTACCAGGCCAACACCCCACCAACGCGCGGTCGCGAGACACCCCACCAACGCCTGGTCGCGGGGGTGTCCGATCTGATTTCAGCAAAACTACTGCAGTAAGAA | -6.9 ± 0.36 | -6.15 ± 3.6
21 | AATGTTGTTGATGCAACCATAAAGTGATATTTAATAATTATTTATAATCAGCAACTTAACCACAAAACAACCAGCGCGGTCGCGAGACACCCCACCAACGCCTGGTCGCGGGGGTGTCCGATCTGATTTCAGCAAAACTACTGCAGTAAGAA | -7.15 ± 1.6 | -5.07 ± 2.1
22 | AATGTTGTTGATGCAACCATAAAATGATAATTAATAATTATTTATAATCAGCAACTTAACCACAAAACACCCATAAATTGATATTGCACAAAAGTTGGTATTCAACTATAAAATGTGAATCGAGTATTTCAGCAAAACTACTGCAGTAAGAA | -3.1 ± 1.4 | -1.48 ± 0.57
23 | AATGTTGTTGATGCAACCATAAAGTGATATTTAAGTACTGCGCGTCTGAAGTCATCTTTAAACCGAACAACCATATATTGATATCTCACAAAACAACCATAAGTTGATATTTTTGTGAATCGAGTATTTCAGCAAAACTACTGCAGTAAGAA | -3.55 ± 0.95 | -3.06 ± 1.1
24 | AATGTTGTTGATGCAACCATAAAGTGATATTTACACGAAGTGGCAACTGCCGTGCTGGCGTGCGATGCAACCATATATTGATATCTCACAAAACAACCATAAGTTGATATTTTTGTGAATCGAGTATTTCAGCAAAACTACTGCAGTAAGAA | -2.73 ± 0.84 | 0.496 ± 0.1
